In patent US20210388087A1 (Chugai, published 2021):
Residue numbers refer to the chain shown, from its start. Names may count otherwise.

T1: Human CD3eg linker (human)
T1 construct: Single chain: epsilon and gamma subunits of human CD3 joined by a 29-mer linker, Flag-tag at the C-terminus; also called recombinant human CD3
T1 chain: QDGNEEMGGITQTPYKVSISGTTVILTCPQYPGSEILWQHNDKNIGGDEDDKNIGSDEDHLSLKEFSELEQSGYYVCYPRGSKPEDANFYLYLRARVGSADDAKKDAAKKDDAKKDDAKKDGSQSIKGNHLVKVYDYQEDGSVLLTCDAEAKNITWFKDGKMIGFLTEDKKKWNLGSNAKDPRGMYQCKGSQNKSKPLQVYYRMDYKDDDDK

B1: H183/L072 VH S100aM (antibody, name in Kabat numbering, V domains shown)
VH: QVQLVESGGGLVQPGRSLRLSCAASGFTFSNAWMHWVRQAPGKGLEWVAQIKDKGNAYAAYYAPSVKGRFTISRDDSKNSIYLQMNSLKTEDTAVYYCHYVHYASAMTVLPAFGVDAWGQGTTVTVSS
VL: DIVMTQSPLSLPVTPGEPASISCQASQELVHMNRNTYLHWYQQKPGQAPRLLIYKVSNRFPGVPDRFSGSGSGTDFTLKISRVEAEDVGVYYCAQGTSVPFTFGQGTKLEIK
B2: H183/L072 VH T100bA (antibody, name in Kabat numbering, V domains shown)
VH: B1 VH with M107S, T108A
VL: B1 VL
B3: H183/L072 VH V95I (antibody, name in Kabat numbering, V domains shown)
VH: B1 VH with V101I, M107S
VL: B1 VL
B4: H183/L072 VH V100iI (antibody, name in Kabat numbering, V domains shown)
VH: B1 VH with M107S, V115I
VL: B1 VL
B5: H183/L072 VH T100bL (antibody, name in Kabat numbering, V domains shown)
VH: B1 VH with M107S, T108L
VL: B1 VL
B6: H183/L072 VH T28A (antibody, name in Kabat numbering, V domains shown)
VH: B1 VH with T28A, M107S
VL: B1 VL
B7: H183/L072 VH T28F (antibody, name in Kabat numbering, V domains shown)
VH: B1 VH with T28F, M107S
VL: B1 VL
B8: H183/L072 VH T28Q (antibody, name in Kabat numbering, V domains shown)
VH: B1 VH with T28Q, M107S
VL: B1 VL
B9: H183/L072 VH T28S (antibody, name in Kabat numbering, V domains shown)
VH: B1 VH with T28S, M107S
VL: B1 VL
B10: H183/L072 VH T28R (antibody, name in Kabat numbering, V domains shown)
VH: B1 VH with T28R, M107S
VL: B1 VL
B11: H183/L072 VH T28E (antibody, name in Kabat numbering, V domains shown)
VH: B1 VH with T28E, M107S
VL: B1 VL
B12: H183/L072 VH V100iA (antibody, name in Kabat numbering, V domains shown)
VH: B1 VH with M107S, V115A
VL: B1 VL
B13: H183/L072 VH T28P (antibody, name in Kabat numbering, V domains shown)
VH: B1 VH with T28P, M107S
VL: B1 VL
B14: H183/L072 VH V95M (antibody, name in Kabat numbering, V domains shown)
VH: B1 VH with V101M, M107S
VL: B1 VL
B15: H183/L072 VH T28H (antibody, name in Kabat numbering, V domains shown)
VH: B1 VH with T28H, M107S
VL: B1 VL
B16: H183/L072 VH V95A (antibody, name in Kabat numbering, V domains shown)
VH: B1 VH with V101A, M107S
VL: B1 VL
B17: H183/L072 VH V100iL (antibody, name in Kabat numbering, V domains shown)
VH: B1 VH with M107S, V115L
VL: B1 VL
B18: H183/L072 VH T28V (antibody, name in Kabat numbering, V domains shown)
VH: B1 VH with T28V, M107S
VL: B1 VL
B19: H183/L072 VH T100bI (antibody, name in Kabat numbering, V domains shown)
VH: B1 VH with M107S, T108I
VL: B1 VL
B20: H183/L072 VH T28L (antibody, name in Kabat numbering, V domains shown)
VH: B1 VH with T28L, M107S
VL: B1 VL
B21: H183/L072 VH S100aP (antibody, name in Kabat numbering, V domains shown)
VH: B1 VH with M107P
VL: B1 VL
B22: H183/L072 VH V63L (antibody, name in Kabat numbering, V domains shown)
VH: B1 VH with V66L, M107S
VL: B1 VL
B23: H183/L072 VH V100cI (antibody, name in Kabat numbering, V domains shown)
VH: B1 VH with M107S, V109I
VL: B1 VL
B24: H183/L072 VH V63I (antibody, name in Kabat numbering, V domains shown)
VH: B1 VH with V66I, M107S
VL: B1 VL
B25: H183/L072 VH V95P (antibody, name in Kabat numbering, V domains shown)
VH: B1 VH with V101P, M107S
VL: B1 VL
B26: H183/L072 VH V63A (antibody, name in Kabat numbering, V domains shown)
VH: B1 VH with V66A, M107S
VL: B1 VL
B27: H183/L072 VH V63M (antibody, name in Kabat numbering, V domains shown)
VH: B1 VH with V66M, M107S
VL: B1 VL
B28: H183/L072 VH T28D (antibody, name in Kabat numbering, V domains shown)
VH: B1 VH with T28D, M107S
VL: B1 VL
B29: H183/L072 VH T100bM (antibody, name in Kabat numbering, V domains shown)
VH: B1 VH with M107S, T108M
VL: B1 VL
B30: H183/L072 VH T28M (antibody, name in Kabat numbering, V domains shown)
VH: B1 VH with T28M, M107S
VL: B1 VL
B31: H183/L072 VH V100cA (antibody, name in Kabat numbering, V domains shown)
VH: B1 VH with M107S, V109A
VL: B1 VL
B32: H183/L072 VH T100bP (antibody, name in Kabat numbering, V domains shown)
VH: B1 VH with M107S, T108P
VL: B1 VL
B33: H183/L072 VH T28N (antibody, name in Kabat numbering, V domains shown)
VH: B1 VH with T28N, M107S
VL: B1 VL
B34: H183/L072 VH T28G (antibody, name in Kabat numbering, V domains shown)
VH: B1 VH with T28G, M107S
VL: B1 VL
B35: H183/L072 VH T28W (antibody, name in Kabat numbering, V domains shown)
VH: B1 VH with T28W, M107S
VL: B1 VL
B36: H183/L072 VH V100cL (antibody, name in Kabat numbering, V domains shown)
VH: B1 VH with M107S, V109L
VL: B1 VL
B37: H183/L072 VH V63P (antibody, name in Kabat numbering, V domains shown)
VH: B1 VH with V66P, M107S
VL: B1 VL
B38: H183/L072 VH T28I (antibody, name in Kabat numbering, V domains shown)
VH: B1 VH with T28I, M107S
VL: B1 VL
B39: H183/L072 VH V100cM (antibody, name in Kabat numbering, V domains shown)
VH: B1 VH with M107S, V109M
VL: B1 VL
B40: H183/L072 VH T28K (antibody, name in Kabat numbering, V domains shown)
VH: B1 VH with T28K, M107S
VL: B1 VL
B41: H183/L072 VH V100cP (antibody, name in Kabat numbering, V domains shown)
VH: B1 VH with M107S, V109P
VL: B1 VL
B42: H183/L072 VH V95L (antibody, name in Kabat numbering, V domains shown)
VH: B1 VH with V101L, M107S
VL: B1 VL

Target: T1, Human CD3eg linker
Assay: Biacore SPR, vs template H183/L072

Binder | fold change of affinity
B1 | 0.8 fold
B2 | 1.1 fold
B3 | 7.5 fold
B4 | 0.8 fold
B5 | 1.1 fold
B6 | 0 fold
B7 | 1 fold
B8 | 0 fold
B9 | 1.2 fold
B10 | 2.9 fold
B11 | 0.6 fold
B12 | 4.6 fold
B13 | 0.7 fold
B14 | 0.3 fold
B15 | 0.9 fold
B16 | 0 fold
B17 | 1.8 fold
B18 | 1 fold
B19 | 1.4 fold
B20 | 0.9 fold
B21 | 1.1 fold

Binder | fold change of affinity
B22 | 1.6 fold
B23 | 1 fold
B24 | 1.4 fold
B25 | 0 fold
B26 | 1.1 fold
B27 | 1.4 fold
B28 | 0.6 fold
B29 | 1 fold
B30 | 0.8 fold
B31 | 1.1 fold
B32 | 1.1 fold
B33 | 0.8 fold
B34 | 0.7 fold
B35 | 0.9 fold
B36 | 1.2 fold
B37 | 1.2 fold
B38 | 1.1 fold
B39 | 1.2 fold
B40 | 2.7 fold
B41 | 1 fold
B42 | 0 fold
